Data as given in patent US20040072188A1 (Biogen, published 2004).

Columns and labels:
[1] = target: T1, human BAFF-R (JST576), full length, on cells (human, UniProt Q96RJ3 1-184); assay: FACS on 293EBNA cells co-transfected with pJST576 and GFP reporter; anti-murine APRIL mAb, biotinylated anti-rat IgG2b, SAV-PE
T1 construct: also called pJST576 transfected cells; huBAFF-R
T1 sequence: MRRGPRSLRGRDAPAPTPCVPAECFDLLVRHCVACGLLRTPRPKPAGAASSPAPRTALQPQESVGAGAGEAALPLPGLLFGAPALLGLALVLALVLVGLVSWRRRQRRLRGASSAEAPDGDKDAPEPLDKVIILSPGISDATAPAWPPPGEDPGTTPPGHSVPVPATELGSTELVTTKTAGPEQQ
Description: (§1) At 18-20 hr post-transfection, cells were detached, counted, and stained for FACS analysis similar to Example 5 with the following modifications. […] The cells were again washed, fixed with paraformaldehyde, and analyzed by FACS for GFP and PE positive cells.

[2] = target: T2, human TACI, full length, on transfected 293EBNA cells (CA336) (human, UniProt O14836 1-293); assay: FACS on 293EBNA cells co-transfected with human TACI and GFP, 1 ug/ml myc-APRIL
T2 construct: whole, on cells; also called huTACI
T2 sequence (looked up): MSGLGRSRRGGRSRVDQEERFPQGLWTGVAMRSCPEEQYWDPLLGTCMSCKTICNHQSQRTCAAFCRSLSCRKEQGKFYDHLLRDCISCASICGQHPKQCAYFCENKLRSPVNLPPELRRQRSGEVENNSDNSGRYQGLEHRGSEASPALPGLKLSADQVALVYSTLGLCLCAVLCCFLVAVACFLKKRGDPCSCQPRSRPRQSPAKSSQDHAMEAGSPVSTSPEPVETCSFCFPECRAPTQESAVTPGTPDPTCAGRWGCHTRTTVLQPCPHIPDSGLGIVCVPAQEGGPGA
Description: as §1

binding result [1]: no binding (tested: 1 ug/ml)
binding result [2]: binds
B1: murine recombinant soluble myc-APRIL (ligand, UniProt Q9D777 96-241, looked up)
chain: AVLTQKHKKKHSVLHLVPVNITSKADSDVTEVMWQPVLRRGRGLEAQGDIVRVWDTGIYLLYSQVLFHDVTFTMGQVVSREGQGRRETLFRCIRSMPSDPDRAYNSCYSAGVFHLHQGDIITVKIPRANAKLSLSPHGTFLGFVKL
notes: also called myc-muAPRIL; murine myc-APRIL; not shown: myc tag
